The text below walks through data of US20250136719A1 (TECHNION RESEARCH AND DEVELOPMENT FOUNDATION, published 2025).

For this experiment, the target named is T1, latent 65 kDa heparanase (Hpa65) (UniProt Q9Y251 36-543, limits assumed).
T1 construct: Single-chain latent 65 kDa form coated on the ELISA plate; also called recombinant 65 kDa latent pro-heparanase; pro-heparanase
T1 sequence (looked up): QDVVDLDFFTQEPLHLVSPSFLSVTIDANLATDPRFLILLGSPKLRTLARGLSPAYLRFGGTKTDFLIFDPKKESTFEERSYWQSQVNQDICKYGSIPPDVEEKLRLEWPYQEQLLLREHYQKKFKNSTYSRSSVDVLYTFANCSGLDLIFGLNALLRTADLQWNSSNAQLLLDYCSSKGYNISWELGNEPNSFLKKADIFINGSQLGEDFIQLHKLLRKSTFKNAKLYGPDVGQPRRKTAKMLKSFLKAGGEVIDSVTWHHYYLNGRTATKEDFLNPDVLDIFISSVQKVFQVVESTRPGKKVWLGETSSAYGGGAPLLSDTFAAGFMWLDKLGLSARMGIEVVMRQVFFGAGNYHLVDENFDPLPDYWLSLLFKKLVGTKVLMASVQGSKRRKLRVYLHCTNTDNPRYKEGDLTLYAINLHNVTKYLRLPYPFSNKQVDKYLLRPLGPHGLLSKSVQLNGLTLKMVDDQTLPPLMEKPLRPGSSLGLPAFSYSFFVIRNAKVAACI
The experiment can be described thus: ELISA, antibody titrated on plate coated with latent 65 kDa heparanase. As for the experimental part:
An ELISA method was applied to characterize the preferential recognition of heparanase by mAb A54 vs. control mouse IgG (FIG. 2A). For this purpose, microtiter 96-well plate was coated with latent 65 kDa heparanase (Hpa65). Purified (protein G Sepharose) mAb A54 or control mouse IgG were then added at the indicated concentrations and the extent of binding to the immobilized heparanase was determined by ELISA. […] Next, the purified A54 mAb was subjected SDS-PAGE (FIG. 2B) and Western blot (FIG. 2C, Secondary antibody: Goat Anti-Mouse Kappa-HRP) analyses to further characterize the purity, molecular weight and isotype of the antibody light and heavy chains. Lanes M1 and M2: Protein Marker; Lane 1: Reducing condition; Lane 2: Non-reducing condition; Lane P: Mouse IgG1, Kappa as a positive control. (Ab: antibody: Goat Anti-Mouse IgG-HRP). Briefly, mAb A54 was expressed in 293F cells applying the pcDNA3.4 expression vector and serum free (Expi293F) medium. The antibody isotype was characterized as IgG1-Kappa.

B1: mAb A54 (antibody, IgG1, V domains shown)
VH: QVQLQQSGAELAKPGASVRMSCKASGYTFTNYWMHWVKQRPGQGLEWIGYINPTTGYTEYNQKFKDKATLTADKSSSTAYMQLSSLTSEDSAVYYCARGGAGYDYDEDYAMDYWGQGTSVTVSS
VL: DIVLTQSPASLAVSLGQRATISCRASESVEYFGTSYMNWYQQKPGQPPKLLIYLASILESGIPARFSGSGSGTDFTLNIHPVEEEDAATYYCQQSNEDPYTFGGGTKLEIK
notes: Murine monoclonal antibody, IgG1-Kappa; Purified on protein G from hybridoma, also expressed in 293F cells; also called A54 mAb; A54 antibody
As usually defined, the IC50 is the concentration at which inhibition is half-maximal. A low value points to higher potency. B1 showed an IC50 of 450 pM.
